Measured values published in article PMC8012654.

Target: recombinant GST-αII spectrin peptide, codons 891-1231 (repeats 9 and 10), R1098Q (mouse) (UniProt P16546)
Test: SPR; BIAcore T200, CM5 chip; GST-spectrin peptides captured by their GST tag on amine-coupled goat anti-GST antibody to 1,000 RU; CaM 20 nM to 500 nM flowed in HBS running buffer with 2 mM CaCl2; 25 °C, 20 µl/min; global fit, 1:1 Langmuir model with mass transport step; KD = kd/ka

- reduction in affinity for CaM relative to the WT peptide: 19%
Substance: purified bovine brain calmodulin (CaM) (from UniProt P62157 1-149) (natural protein)
